Target: T1, CRF2-4/zcytor11 heterodimeric receptor on BaF3 cells (human, UniProt Q08334 20-325, limits assumed)
T1 sequence 1: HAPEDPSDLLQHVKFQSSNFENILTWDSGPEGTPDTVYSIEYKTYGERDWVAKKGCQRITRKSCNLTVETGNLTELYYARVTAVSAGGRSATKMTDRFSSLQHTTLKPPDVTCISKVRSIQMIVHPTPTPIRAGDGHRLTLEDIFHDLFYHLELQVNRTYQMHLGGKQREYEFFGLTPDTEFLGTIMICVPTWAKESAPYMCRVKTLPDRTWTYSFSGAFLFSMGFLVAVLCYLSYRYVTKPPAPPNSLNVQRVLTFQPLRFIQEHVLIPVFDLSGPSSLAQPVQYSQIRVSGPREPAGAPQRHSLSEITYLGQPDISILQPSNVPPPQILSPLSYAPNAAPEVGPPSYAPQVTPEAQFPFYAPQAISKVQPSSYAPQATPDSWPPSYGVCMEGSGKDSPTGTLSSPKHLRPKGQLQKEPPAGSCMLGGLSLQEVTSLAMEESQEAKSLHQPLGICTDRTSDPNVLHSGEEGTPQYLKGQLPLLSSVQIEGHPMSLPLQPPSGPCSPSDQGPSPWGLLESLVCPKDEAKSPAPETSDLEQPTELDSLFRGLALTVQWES
T1 sequence 2: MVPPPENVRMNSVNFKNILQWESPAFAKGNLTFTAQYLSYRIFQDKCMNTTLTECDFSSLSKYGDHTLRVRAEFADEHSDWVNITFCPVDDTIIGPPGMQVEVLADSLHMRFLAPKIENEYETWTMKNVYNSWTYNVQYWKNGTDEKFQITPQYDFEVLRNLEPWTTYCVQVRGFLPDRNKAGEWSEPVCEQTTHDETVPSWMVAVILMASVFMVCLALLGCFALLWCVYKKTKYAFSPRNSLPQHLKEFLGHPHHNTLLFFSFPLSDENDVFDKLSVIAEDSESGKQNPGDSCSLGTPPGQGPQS
Experiment: cell-based or functional assay

B1: ZCYTO18-CEE polypeptide purified from BHK 570 cells (ligand)
chain: APISSHCRLDKSNFQQPYITNRTFMLAKEASLADNNTDVRLIGEKLFHGVSMSERCYLMKQVLNFTLEEVLFPQSDRFQPYMQEVVPFLARLSNRLSTCHIEGDDLHIQRNVQKLKDTVKKLGESGEIKAIGELDLLFMSLRNACIEYMPME
B1 was tested, and the “proliferation of BaF3/CRF2-4/zcytor11 cells (Alamar Blue), fold induction at 0.06 ng/ml ZCYTO18-CEE” value was roughly 2 fold induction and the “proliferation of BaF3/CRF2-4/zcytor11 cells (Alamar Blue), fold over background at 50 ng/ml ZCYTO18-CEE” value was roughly 15 fold over background.

Reference: patent US20030170823A1 (ZymoGenetics, published 2003)
